Series [1] in a line: Properties of the purified acid phosphatase derived from Escherichia blattae. On the set-up: species or system Escherichia blattae JCM 1650. As for the experimental part:
A nutrient medium (pH 7.0, 50 ml) containing 1 g/dl of peptone, 0.5 g/dl of yeast extract, and 1 g/dl of sodium chloride was poured into Sakaguchi flasks (500 ml), which was sterilized at 120° C. for 20 minutes. A slant culture of Escherichia blattae JCM 1650 was inoculated to each of the flasks once with a platinum loop, which was cultivated at 30° C. for 16 hours with shaking. Microbial cells were harvested from a culture by centrifugation. The microbial cells (about 3,300 g) were suspended in 100 mM potassium phosphate buffer (1 L, pH 7.0). A ultrasonic treatment was performed at 4° C. for 20 minutes to disrupt the microbial cells. The treated suspension was centrifuged to remove its insoluble fraction. Thus a cell-free extract was prepared.
The purified enzyme had the following properties.

Series [2] is described as follows: Phosphomonoesterase activity (inosine produced by hydrolysis of 5'-inosinic acid). The format is biochemical. As to conditions: purified Escherichia blattae enzyme. As for the experimental part:
The phosphomonoesterase activity was measured under the following condition using 5'-inosinic acid as a substrate. The reaction was performed at 30° C. for 10 minutes in a reaction solution (1 ml) containing 10 μmol/ml of 5'-inosinic acid, 100 μmol/ml of MES/NaOH buffer (pH 6.0), and an enzyme. The reaction was stopped by adding 200 μl of 2 N hydrochloric acid. After that, precipitates were removed by centrifugation. Then, inosine produced by the hydrolytic reaction was quantitatively measured. An amount of enzyme to produce 1 μmol of inosine per 1 minute under this standard reaction condition was defined as 1 unit.
Inosine and 5'-inosinic acid were analyzed under the following condition by means of high-performance liquid chromatography (HPLC).

B1: acid phosphatase derived from Escherichia blattae: enzyme purified from cell-free extract of Escherichia blattae JCM 1650; mature protein SEQ ID NO: 11 (protein)
chain: LALVATGNDTTTKPDLYYLKNSEAINSLALLPPPPAVGSIAFLNDQAMYEQGRLLRNTERGKLAAEDANLSSGGVANAFSGAFGSPITEKDAPALHKLLTNMIEDAGDLATRSAKDHYMRIRPFAFYGVSTCNTTEQDKLSKNGSYPSGHTSIGWATALVLAEINPQRQNEILKRGYELGQSRVICGYHWQSDVDAARVVGSAVVATLHTNPAFQQQLQKAKAEFAQHQKK
Regarding B1, in series [1], the Optimum temperature entry was “about 35 °C”. Further, the “Optimum pH” value is listed as 6.5 in series [1] (phosphate ester hydrolytic reaction) and 5.2 in series [1] (transphosphorylation reaction). For the same molecule, in series [1] (treatment at pH 7.0 for 30 minutes), the Temperature stability result is “up to 40 °C”. Also, the “phosphate ester hydrolytic activity (phosphomonoesterase activity) relative to transphosphorylation activity” value in series [2] is listed as “not less than 30 times”.

These data come from patent US6010851A, “Method for producing nucleoside-5'-phosphate ester” (Ajinomoto Co., Inc., priority 1995, dated 2000).
